34 variants from the RNAGym collection of RNA variant scans (doi:10.1093/nar/gkz1192) can be followed below.

Sequences and labels used below:
B1: CPEB3 Ribozyme (parent)
chain: UAACAGGGGGCCACAGCAGAAGCGUUCACGUCGCAGCCCCUGUCAGAUUCUGGUGAAUCUGCGAAUUCUGCUGUAUAUCUC

In the data set the parent is B1. Put plainly: self-cleavage, relative activity (ratio to wild type); higher = more cleavage; in vitro, sequencing. In short, it runs like this:
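Barcoded CPEB3 ribozyme mutants, produced by rounds of error-prone PCR, self-cleaved while being transcribed with T7 RNA polymerase for 5 hours at 37°C and during a subsequent 15 min DNase I step before EDTA was added. Sequencing of template-switched cDNA on Illumina gave cleaved and total reads, and DNA sequencing assigned barcodes to variants. Each variant's relative activity is its cleaved/total read fraction divided by the unmutated ribozyme's fraction, averaged across three batches. A variant needed a minimum of 5 reads.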
In the case of UAACAGGGGGCCACGGCAGAAGCGUUCACGUCGCAGCCCCUGUCAGAUUCUGGUGAAUCUGCGAAUUCUGCUGUAUAGCUC [A15G U78G], the self-cleavage was 1.06.

UAGCAGGUGGCCACAGCAGAAGCGUUCACGUCGCAGCCCCUGUCAGAUUCUGGUGAAUCUGCGAAUUCUGCUGUAUAUCUC [A3G G8U]: the self-cleavage stood at 0.34.

For the variant UAACAGGGGGCCACAGCAGAAGCGUUCACGUCACAGCCCCUGUCAGAUUCUGGUGAAUCUGCGAAUUCUGCGGUAUAUCUC [G33A U72G], the self-cleavage is 0.24.

Consider UAACAGGGGGCCACAGCAGAAGCGUUCACGUCGCAGCCCCUGUCAGAUUCUGGUGAAUCCGCGAAUUCUGCUGAAUAUCUC [U60C U74A], for which the self-cleavage was 0.96.

For the variant UAACAGGGGGCCACAGCAGAAGCGUCCACGUCGCAGCCCCUGUCAGAUUCUGGUGAAUCUGCGAAGUCUGCUGUAUAUCUC [U26C U66G], the self-cleavage came out at 0.21.

Turning to UAACAGGGGGCCACAGCAGAAGCGUUCACUUCGCAGCCCCUGUCAGAUCCUGGUGAAUCUGCGAAUUCUGCUGUAUAUCUC [G30U U49C], the self-cleavage came to 0.42.

As to UGACAGGGGGCCACAGCAGAAGCGUUCACGUCGCAGCCCCUGUCAGAUUCUGGUGAAUCUGCGAAUUCUGCUGUGUAUCUC [A2G A75G], the self-cleavage stood at 0.54.

Turning to UAACAGGGGGUCACAGCAGAAGCGUUCACGUCGCAGCCCCAGUCAGAUUCUGGUGAAUCUGCGAAUUCUGCUGUAUAUCUC [C11U U41A], the self-cleavage came out at 0.3.

Turning to UAACAGGGGGCCACAGCAGAAGCGUUCACGUCGCAGCCCCCGUCAGAUUCUGGUGAAUCUACGAAUUCUGCUGUAUAUCUC [U41C G61A], the self-cleavage came out at 0.34.

Consider UAACAGGGGGCCACAGCAGAAGCGUUCACGUCGCAGCCCCUGUCAGAUUCUGGUGAAUCAGCGAAUACUGCUGUAUAUCUC [U60A U67A], for which the self-cleavage turned out to be 0.42.

As to UAACAGGGGGCCACAGCAGAAGCGUUCACGUCGCAGCCCCUGUCAGAUUCUGGUGAAUCUGCGUAUUCUGCUGUAUAUCCC [A64U U80C], the self-cleavage was 0.45.

With UAACAGGGGGCCACAGCAGAAGCGUUCACGUCGCAGCCCUUGUCAGAUUCUGGUGAAUCAGCGAAUUCUGCUGUAUAUCUC [C40U U60A], the self-cleavage came to 0.34.

UAACAGGGGGCCACAGCAGAAGCGUUCACGUCGCAGCCCCUGUCAGAUUCUGGUGAAUCUGCGAAUUCUGCAGUAAAUCUC [U72A U76A]: the self-cleavage was found to be 0.72.

UAACAGGGGGCCACAGCAGAAGCGUUCACGUCGCUGCCCCUGUCAGAUUCUCGUGAAUCUGCGAAUUCUGCUGUAUAUCUC [A35U G52C]: the self-cleavage came out at 0.44.

As for UAACAGGGGGCCACAGCAGAAGCGUUCACGUCGCCGCCCCUGUCAGAUUCUGGUGACUCUGCGAAUUCUGCUGUAUAUCUC [A35C A57C], the self-cleavage worked out at 0.28.

UAUCAGGGGGCCACAGCAGAAGCGUUCACGUCGCAGCCCCUGUCAGAUUCUGGUGAAUCUGCGAAUUCUGCUGUAUACCUC [A3U U78C]: the self-cleavage was 0.9.

In the case of UAACAGGGGGCCACAGCAGAAGCGUUCACGUCGCUGCCCCUGACAGAUUCUGGUGAAUCUGCGAAUUCUGCUGUAUAUCUC [A35U U43A], the self-cleavage was found to be 0.71.

Take UAACAGGGGGCCACAGCAGAAGCGUUCACGUCACAGCCCCUGUCAGAUUCUGGUGAGUCUGCGAAUUCUGCUGUAUAUCUC [G33A A57G]: the self-cleavage amounted to 0.25.

For the variant UAACAGGGGGCCACAGCAGAAGCGUUCACGUCGCAGCCCCUGUCAGAUUCUGGUGAAUCUGGGAAUUCUGUUGUAUAUCUC [C62G C71U], the self-cleavage came out at 0.38.

Turning to UAACAGGCGGCCACAGCAGAAGCGUUCACGUCGCAGCCCCUGUCAGAUUCUGGUGAAUCUGCGAAUUCUGCUGUAUAUCUC [G8C], the self-cleavage came out at 0.27.

For UAACAGGGGGCCACAGCAGAAGCGUUCACGUCGCAGCCCCUGUCAUAUUCUGGUGAAUCUGCGAAUUCUGCUGUAUAUCCC [G46U U80C], the self-cleavage came to 0.3.

UAACAGGGGGCCAUAGCAGAAGCGUUCACGUCGCAGCCCCUGUCAGAUUCUGGUGAAUCUGCGAAUUCUGCUGUAUAUCCC [C14U U80C]: the self-cleavage was 1.33.

Consider UAACAGGGGGCCACAGCAGAAGCGUUCACGUCGCAGCCCCGGUCAGAUUCUGGUGAAUCUGCGAAUUCUGCUGUAAAUCUC [U41G U76A], for which the self-cleavage is 0.14.

UAACAGGGGGCCACAGCAGAAGCGUUCACGUCGCUGCCCCUGUCAGAUUCUGGUGAAUCUGCGGAUUCUGCUGUAUAUCUC [A35U A64G]: the self-cleavage worked out at 0.39.

In the case of UAACAGGGGGCCACAGCAGAAGCGUUCACGUCGCAGCCCCUGUCAGAUUCCUGUGAAUCUGCGAAUUCUGCUGUAUAUCUC [U51C G52U], the self-cleavage is 0.94.

Turning to UAAGAGGGGGCCACAGCAGAAGCGUUCACGUCGCAGCCCCCGUCAGAUUCUGGUGAAUCUGCGAAUUCUGCUGUAUAUCUC [C4G U41C], the self-cleavage worked out at 1.1.

UAACAGGGGGCCACAGCAGAAGCGUCCACGUCGCAGCCCCCGUCAGAUUCUGGUGAAUCUGCGAAUUCUGCUGUAUAUCUC [U26C U41C]: the self-cleavage was 0.45.

As to UAACAGGGGGCCACAGCAGAAGCGCUCACGUCGCAGCCCCUGUCAGAUUCUGGUGAAUCUGCGAAUUCUGAUGUAUAUCUC [U25C C71A], the self-cleavage came out at 0.13.

On to UAACAGGGGGCCACAGCAGUAGCGUUCACGUCGCAGCCCCUGUCAGAUUCUGGUGAAUCUGCGAAUUUUGCUGUAUAUCUC [A20U C68U], for which the self-cleavage is 0.28.

Regarding UAACAGGGGGCCACAGCAGAUGCGUUCACGUCGCAGCCACUGUCAGAUUCUGGUGAAUCUGCGAAUUCUGCUGUAUAUCUC [A21U C39A], the self-cleavage was determined as 0.31.

Turning to UAACAGGGGGCCACAGCAGAAGCGUUCAGGUCGCAGCCCCUGUCGGAUUCUGGUGAAUCUGCGAAUUCUGCUGUAUAUCUC [C29G A45G], the self-cleavage is 0.29.

UAACAGGGGGACACAGCAGAAGCGUUCACGUCGCAGCCCCUGUCAGAUGCUGGUGAAUCUGCGAAUUCUGCUGUAUAUCUC [C11A U49G]: the self-cleavage amounted to 0.3.

Regarding UAACAGGGGGCCACAGCAGAAGCGUUCACGUCGCAGCCCCUGUCAGAUUCCGGUGAAUCUGCGAAUUCUGCUGUAUAUCUU [U51C C81U], the self-cleavage was 1.15.

Regarding UAACAGGGGGCCACAGCAGAGGCGUUCACGUCGCAGCCCCUGGCAGAUUCUGGUGAAUCUGCGAAUUCUGCUGUAUAUCUC [A21G U43G], the self-cleavage came to 0.14.
